Measurements from the DeepSol protein solubility set.

Experiment: soluble on expression in E. coli; label from the status in PepcDB or PDB records

Sequence | soluble on expression in E. coli
MSLTFLTGVPGFLGTRLLRRLAAAAPDRSFLLLVQPKFEGRTHTLLADRGLADRATVLPGDITEPDLGLGAHYDAVAEQITRAVHLAAVYDLTIPREVGWQVNVEGTRHVLDLLAQCPSLERFGYVSSAYVSGERTGTIHEDELVHEAGFKNFYEETKYHAEVLVQDRMDEIPTLVFRPSIVVGDSETGATDKFDGVYFVLNALRSLPRYTPMTRIGSGTEPVNLVPVDFVVDAMGHLLGTEGHAGTVFHLTDPRPLTAQAIMELLADLLDKRVAYVPVPPGLARAMMKTGVGRALGLAPELIDYFDHPSHYDASNTRAALDGTGIDCPFLPDYAPAMVAYARRHDARSSAMYEGHHHHHH | not soluble
MSLTGGISAFGRMVWEGIQIAHEEKPTVLGEEVELVLLDTRSEKTEAANAAARAIDKEKVLAIIGEVASAHSLAIAPIAEENKVPMVTPASTNPLVTQGRKFVSRVCFIDPFQGAAMAVFAYKNLGAKRVVVFTDVEQDYSVGLSNFFINKFTELGGQVKRVFFRSGDQDFSAQLSVAMSFNPDAIYITGYYPEIALISRQARQLGFTGYILAGDGADAPELIEIGGEAVEGLLFTTHYHPKAASNPVAKKFVEVYKEKYGKEPAALNALGYDAYMVLLDAIERAGSFDREKIAEEIRKTRNFNGASGIINIDENGDEGHHHHHH | not soluble
MSLTGKKIETHLEDMVAQANAQLKLTAPESNLEVSYQNYHRGVFSSQLQLLVKPIAGKENPWIKSGQSVIFNESVDHGPFPLAQLKKLNLIPSMASIQTTLVNNEVSKPLFDMAKGETPFEINSRIGYSGDSSSDISLKPLNYEQKDEKVAFSGGEFQLNADRDAKPSPFPGRRKVVRIDAVNEYNQKVQLTFNNLKTDGSSTLASFGERVGNQKLSLEKMTISVEGKELALLEGMEISGKSDLVNDGKTINSQLDYSLNSLKVQNQDLGSGKLTLKVGQIDGEAWHQFSQQYNAQTQALSRQPEIANNPELYQEKVTEAFFSALPLMLKGDPVITIAPLSWKNSQGESALNLSLFLKDPATTKEAPQTLAQEVDRSVKSLDAKLTIPVDMATEFMTQVARKVIRKIKRKNWRNSKLKVHQQWGRCSVEGHHHHHH | not soluble
MSLTHTVHLHLEETDNLALQRLCGSFDNNLDLLAKALDIHISRRFEHFTFNGAFAHAGKRALLKLLETAQTRDLNDGDIRLAAVEAQTEDAGHQEKNHDHAYYFRTKRGSIGGRTPRQNGYIRALLNHDIVFGLGPAGTGKTYLAVAAAVDAMEKHQVERIILVRPAVEAGEKLGFLPGDLTQKVDPYLRPLYDALYDLMGFDRVTKLIEKGLIEIAPLAYMRGRTLNGAYIILDEAQNTTPEQMKMFLTRIGFGAKAVITGDTSQIDLPKNIKSGLKDAREKLHNVEGLYFHTFTGEDVVRHPLVQKIVEAYESAEHDEGGSHHHHHH | soluble
MSLTISILGARVIDPNSGLDQVTDLHLDGGRIVAIGAAPAGFSASRTIQADGLVAAPGLVDLGVSLREPGYSRKGNIASETRAAVAGGVTSLCCPPQTKPVLDTSAVAELILDRAREAANSKVYPVGALTKGLEGEQLAELVALRDTGCVAFGNGLKEIPNNRTLARALEYAATFDLTVVFHSQDRDLAQGGLAHEGAMASFLGLPGIPESAETVALARNLLLVEQSGVRAHFSQITSARGARLIAQAQALGLPVTADVALYQLILTDESLREFSSLYHVQPPLRTAADRDGLREAVKSGVIQAISSHHQPHERDAKLAPFGATEPGISSVELLLPLAMTLVQDGLLDLPTLLARLSSGPAAALRLPAGELKVGGAADLVLFDPQASTVAGEQWFSRGENCPFIGHCLPGAVRYTLVDGHICHEAEGHHHHHH | soluble
MSLTISNEDNMILMSRYPDKYFDLAIVDPPYGILNKTKRGGDYKFNMNEYSQWDIKPDQTYFNELFRVSKNQIIWGGNYFGELWLRSEYNKGFIIWDKNQPETLNNFSMAEMAWSSFDRPSKIFRFSVRKNRNKTHPTQKPVELYQWLLKMYAKQGDKILDTHLGSGTLAIACCIAQFDLTACEINSDYYQQSIEKIKNNLPEARISFGHPGYCIIEEGGSHHHHHH | soluble
MSLTKILIGQTAGFTGPAGEQVKEMTRGAQLYLDAVNRAGGVYGRRIELISEDDGFDANVSKQRAHTLLTDKQVFALFLSRGTPNTEAIMSEAHAVGAPMVAPSTGASIFFDRPDPLVFVVRAKYQTEIAELVHHFETLGLKRLALVNVNDSFGKDTEAGFTTATQHLPPSTHQIVTVDRLKPNIETATAEIGKFAPNAVILACAGTTAQALAEALTKHGTVSQMATLSNNSSTAFARSLGNMARGMMVTQVMPSPVRATSPIGRELTASAKAAGVMPSYGMMEGYASAKLLVEGLKRAGKAPTRASFVAGLEAAGTIDLGGLDIRNGRNNHKGSSFVEITVIGPHGTFIKEGHHHHHH | not soluble
MSLTLLALGINHKTAPVSLRERVSFSPDKLDQALDSLLAQPMVQGGVVLSTCNRTELYLSVEERDDLQEALIRWLCDYHNLNEDDLRNSLYWHQDNDAVSHLMRVASGLDSLVLGEPQILGQVKKAFADSQKGHMKASELERMFQKSFSVAKRVRTETDIGASAVSVAFAACTLARQIFESLSTVTVLLVGAGETIELVARHLREHKVQKMIIANRTRERAQILADEVGAEVIALSDIDERLREADIIISSTASPLPIIGKGMVERALKSRRNQPMLLVDIAVPRDVEPEVGKLANAYLYSVDDLQSIISHNLAQREGHHHHHH | not soluble
MSLTNEFEILKPGKLLLASANLLDPNFKRTVLLMCEHNEEGSIGFILNKPMEFKVCEAISGFDEIDEPLHMGGPVQVDTVHVLHTRGDVIDGAVEVIPGLFWGGDKEQLSYLINTGVIKASEVRFFLGYAGWSAGQLEAEFEEGSWYTADASSEQVFTDEYERMWSRSVRSKGGEYCYVANSPELPGMNEGHHHHHH | soluble
MSLTNSDWMPTASISQLKQRATLLRQIREFFAERNVLEVETPAMSHATVTDIHLHTFKTEFVGPGYAKGSALHLMTSPEFHMKRLLAAGSGCIYQLGKAFRNEENGRYHNPEFTMLEWYRIGFDHHALMDEMDALLQLVLRCGSAERMTYQEAFLNVLGVCPLEEEMRELKQVAATLGLSDIAEPEEDRDTLLQLLFSIGIEPKIGQITPAFVYDFPASQAALAKINPADPRVADRFEVYFKGIELANGFHELDNPAEQLARFKADNAKRLEMGLTEQPIDYHLIAALEAGLPECAGVALGIDRLIMLALGEDHIDKVTAFPFPRAEGHHHHHH | soluble
MSLTPIEAMKLAAGEIAGEKSLKTLAEVVDILSQEQDVTKRFGQKGLGQRNLGRAVQLLVESSETNEGRCMVAYDVFKSLERIVLDYVPDQNDRAKYLEDLKIAKGLYRERIMTEMFNAYMDEPYAVKKDVMNYVNMIIGIDAESLGPDRMWKYKDPQTGELKALKIDERYVKNVEDRLGLKTDEQRESFRTSIRKIYGQKISVDSTYDFMDNLELVKAVTDVRLKSDIAGAGSLIGALANRTNEENQKLYDRMVDTMLKKLGYCRTCAQKTIEYFCTQEDEGHHHHHH | soluble
MSLTQNAVEKTPVTMLGLGAMGTALARTWLAAGHRLTVWNRTPARAAALAAEGARVADSAAEAVAANTLVIVCLLDDSSVDEVLAGIDLADTDLVNLTTSTPAQARARAEWANERGARYLDGGIMAVPPMIGVPEAGSYVFCSGSRELFERHQETLGIPAGTTYVGMDAGFAALHDMALLSAMYGMFAGVAHAFALIHKEDIDPTSLAPMLADWLVAMAPAVHQTADHLRSGDYTKGVVSTLAMQVAGTPTFLSTAEQQGVSPELLSPYFELMRRRLAEGSGEEDLTGVINLLVHEGHHHHHH | not soluble
MSLTRICIVGAGAVGGYLGARLALAGEAVNVLARGATLQALQTAGLRLTEDGATHTLPVRATHDAVALGEQDVVIVAVKAPALESVAAAIAPLIGPGTCVVVAMNGVPWWFFDRPGPLQGQRLQAVDPHGRIAQAIPTRHVLGCVVHLTSATASPGHIRHGNGRRLILGEPAGGASPRLASIAALFGRAGLQAECSEAIQRDIWFKLWGNMTMNPVSVLTGATCDRILDDPLVSAFCLAVMAEAKAIGARIGCPIEQSGEARSAVTRQLGAFKTSMLQDAEAGRGPLEIDALVASVREIGRHVGVPTPQIDTLLGLVRLHAQTRGLYEGHHHHHH | soluble
MSLTRRSDTSLRAALIIQNWYRGYKARLKARQHYALTIFQSIEYADEQGQMQLSTFFSFMLENYTHIHKEELELRNQSLESEQDMRDRWDYVDSIDVPDSYNGPRLQFPLTCTDIDLLLEAFKEQQILHAHYVLEVLFETKKVLKQMPNFTHIQTSPSKEVTICGDLHGKLDDLFLIFYKNGLPSERNPYVFNGDFVDRGKNSIEILMILCVSFLVYPNDLHLNRGNHEDFMMNLRYGFTKEILHKYKLHGKRILQILEEFYAWLPIGTIVDNEILVIHGGISETTDLNLLHRVERNKMKSVLIPPTETNRDHDTDSKHNKVGVTFNAHGRIKTNGSPTEHLTEHEWEQIIDILWSDPRGKNGCFPNTCRGGGCYFGPDVTSKILNKYQLKMLIRSHECKPEGYEICHDGKVVTIFSASNYYEEGSNRGAYIKLCSGTTPRFFQYQVTKATCFQPLREGHHHHHH | not soluble
MSLTTFLFRNGALLDPDHPDLLQGFEILIEDGFIREVSDKPIKSSNAHVIDVKGKTIMPGLIDLHVHVVAIEFNLPRVATLPNVLVTLRAVPIMRAMLRRGFTTVRDAGGAGYPFKQAVESGLVEGPRLFVSGRALSQTGGHADPRARSDYMPPDSPCGCCVRVGALGRVADGVDEVRRAVREELQMGADQIKIMASGGVASPTDPVGVFGYSEDEIRAIVAEAQGRGTYVLAHAYTPAAIARAVRCGVRTIEHGNLIDDETARLVAEHGAYVVPTLVTYDALASEGEKYGLPPESIAKIADVHGAGLHSIEIMKRAGVKMGFGTDLLGEAQRLQSDEFRILAEVLSPAEVIASATIVSAEVLGMQDKLGRIVPGAHADVLVVDGNPLKSVDCLLGQGEHIPLVMKDGRLFVNELEGHEGHHHHHH | soluble
MSLTVSNNFKMIYIASCGEGINAFHLVESTLVQFPDSDITVVKVPHIRTESQVDHLLDRVKDVESLIAHTIVEPNLRQYLVTKAEEHKIVTIDLMGQVLNKIETFLSIRPLGKPGLYRETHQVDLKQVTAIDFALAHDDGLRPESLDEAEIILVGLSRAGKTPLSMYMGVMGWKVANIPYVPGVPMPQTLDEVDRRRVIALNINIEQLLSHRKMRQESLGTSDMHAYSRRQEVEVEVQTAQKYYITKGFSMIDVSNKPIETSAEEIAEMITRRFKAQAHEGHHHHHH | not soluble
MSLTVVLIVDDHHLIRAGAKNLLEGAFSGMRVEGAETVSDALAFLEADNTVDLILLDVNLPDAEAIDGLVRLKRFDPSNAVALISGETDHELIRAALEAGADGFIPKSADPQVLIHAVSLILEGEIFLPRSYLQGGRMAEVATPLDSSERPEQNLTPRQRDVFELMCKGLANKEIARLLDLSESTVKSHVSAIFKQIGTTSRSKTIAIFRQEGVALPSASEDEGHHHHHH | soluble
MSLTYQFMQPYTFKNGVTLKNRMVMSPTTTMSSFYDGHVTNDEIKFYDVRAGGPGMIIGEVANVIASGKGFEGELSIADDGDIDGLSRLANAMKRGGTKAILQIFHAGRKSNDSILRGEQPVSASAVKAVFPPDSQTPRELTAAEIDEIIVAFGEATRRAIAAGFDGVELHGANTYLLQQFFSPNSNRRTDKWGGDRDARMGFAKAVIASSQQAIDTYADRPFLLGYRISPEEIETPGIRLADSLAFVDMLGDSTVDYVHTSMGSAHRTSLNDKTDHEPILKQLVQQLAGRKPLIGVGSVEKPADAEAVLEMGADLVAMGREFIREPQWVEKIVDGDEASIRYQISPSELDELAIPRAMQDYLKGAFYSVMHFTTDPSVAVDYQNEGHHHHHH | soluble
